Assay results published in patent publication WO2018083080A2 (dated 2018).

Key:
[1] = biological target: T1, recombinant human CFP HIS-tagged (human, UniProt P27918 28-469); assay: flow cytometry; CFP-HIS on enriched mouse NK cells
T1 construct: Secreted from CHO cells, purified on Ni-NTA and by size exclusion; also called huCFP-HIS; HuCFP-HIS; not shown: HIS tag inserted through the reverse primer (C-terminal)

[2] = biological target: T1, recombinant human CFP HIS-tagged; assay: flow cytometry; CFP-HIS on cells

T1 sequence (P27918 28-469): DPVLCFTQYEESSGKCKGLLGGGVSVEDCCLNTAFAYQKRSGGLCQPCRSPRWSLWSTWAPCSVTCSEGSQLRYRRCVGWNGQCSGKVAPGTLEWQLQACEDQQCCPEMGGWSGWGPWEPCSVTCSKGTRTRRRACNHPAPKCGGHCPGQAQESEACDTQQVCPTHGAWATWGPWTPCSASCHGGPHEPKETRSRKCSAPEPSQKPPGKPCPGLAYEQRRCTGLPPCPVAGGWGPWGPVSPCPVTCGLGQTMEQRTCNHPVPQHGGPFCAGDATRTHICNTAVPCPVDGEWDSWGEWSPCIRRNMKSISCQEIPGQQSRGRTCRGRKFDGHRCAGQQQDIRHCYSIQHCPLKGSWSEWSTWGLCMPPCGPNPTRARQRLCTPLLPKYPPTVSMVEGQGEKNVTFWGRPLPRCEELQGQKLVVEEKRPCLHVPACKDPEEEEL

B1: mouse NKp46 on Ncr1 WT/WT enriched mouse NK cells (receptor, UniProt Q8C567 17-325, looked up)
chain: QRINTEKETLPKPIIWAKPSIMVTNGNSVNIWCQGAQSASEYQLYFEGSFFALERPKPSRSMNKVRFFISQMTSHTAGIYTCFYQSGELWSKSSNPLKLVVTGLYDTPNLWVYPRPEVTLGENVTFFCQLKTATSKFFLLKERGSNHIQNKYGNIQAEFPMGPVTRAHRGTYRCFGSYNDYAWSFPSEPVTLLITGGVENSSLAPTDPTSSLDYWEFDLSTNESGLQKDSAFWDHTTQNLIRIGLACIILITLVWLLTEDWLSKRKDHEEANRLTNWECRRRWRMQHYFEEEQRNAISMMELKATPGAL
notes: whole, on cells; also called Ncr1 WT/WT NK cells
[1]
  binding result: binds

B2: NKp30 on DOMsp30 cells (receptor, UniProt O14931 19-135, looked up)
chain: LWVSQPPEIRTLEGSSAFLPCSFNASQGRLAIGSVTWFRDEVVPGKEVRNGTPEFRGRLAPLASSRFLHDHQAELHIRDVRGHDASIYVCRVEVLGLGVGTGNGTRLVVEKEHPQLG
notes: also called DOMsP cells expressing NKp30
[2]
  binding result: no binding (tested: 10ug/ml)
